{"source": "paper PMC12097070", "about": "(2025)", "binders": {"B1": {"name": "Nb NBD1 (VHH)", "VHH": "AVQLVESGGGSVQAGGSLTLSCAASINTGNPALVGWYRQAPGKQREMVAMISISGNTNYAPSVKGRFTISRDNANKTIFLQMNSLTPEDTAVYYCKKLPFGSWGQGTQVTVSS"}}, "molecular_target": "human glucose‐regulated protein 78 (hGRP78), full-length (human, UniProt P11021 19-654)", "sequence (P11021 19-654)": "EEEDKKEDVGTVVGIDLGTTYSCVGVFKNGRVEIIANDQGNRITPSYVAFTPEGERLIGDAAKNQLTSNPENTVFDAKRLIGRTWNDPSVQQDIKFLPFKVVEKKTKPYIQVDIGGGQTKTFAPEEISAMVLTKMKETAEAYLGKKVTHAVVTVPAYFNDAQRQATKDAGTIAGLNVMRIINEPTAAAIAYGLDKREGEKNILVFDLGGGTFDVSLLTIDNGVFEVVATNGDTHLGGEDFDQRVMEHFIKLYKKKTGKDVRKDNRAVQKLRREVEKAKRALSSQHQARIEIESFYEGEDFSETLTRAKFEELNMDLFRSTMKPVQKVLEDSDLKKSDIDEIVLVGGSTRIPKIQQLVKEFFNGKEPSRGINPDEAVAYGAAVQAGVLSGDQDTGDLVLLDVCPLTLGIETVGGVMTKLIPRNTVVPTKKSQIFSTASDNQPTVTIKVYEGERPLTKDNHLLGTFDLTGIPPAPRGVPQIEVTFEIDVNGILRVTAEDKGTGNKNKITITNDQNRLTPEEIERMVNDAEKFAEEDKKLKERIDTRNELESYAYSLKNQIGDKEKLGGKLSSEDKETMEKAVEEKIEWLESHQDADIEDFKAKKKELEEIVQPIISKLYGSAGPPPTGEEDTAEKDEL", "assay": "SPR"}
{"binder": "B1", "values": [{"measurement": "koff", "result": 0.000575, "unit": "s⁻¹"}]}
